# Experimental data published in the RNAGym collection of RNA variant scans (doi:10.1073/pnas.2313332121).
# Fewer inactive variants are shown than the library holds.
# B1: TPR 5TU (parent)
# chain: GGAUCUUCUCGAUCUAACAAAAAAGACAAAUCUGCCACAAAGCUUGAGAGCAUCUUCGGAUGCAGAGGCGGCAGCCUUCGGUGGCGCGAUAGCGCCAACGUUCUCAACUAUGACACGCAAAACGCGUGCUCCGUUGAAUGGAGUUUAUCAUG
# Variants of: B1
# Test: polymerase ribozyme fitness, log enrichment relative to wild type (log ratio); higher = more active; in vitro selection for triplet polymerase activity
# Method in brief: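 A heterodimeric triplet polymerase ribozyme had each of its subunits mutagenized by PCR into a library, which was transcribed. One round of in vitro selection, done in triplicate, annealed each library with a biotinylated primer, its partner subunit and triplets, then incubated it frozen at −7 °C before gel excision of extended constructs, streptavidin-bead capture and RT-PCR. Fitness is the logarithm of genotype enrichment relative to wild-type enrichment, based on Illumina sequencing of inputs and outputs and inverse-variance-weighted replicate averages. A base-2 logarithm is used, and genotypes were kept only with ≥10 input reads and ≥1 read per output.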
row,Variant,polymerase ribozyme fitness (log ratio)
1,A60G G128U,-2.75
2,U61A C96G,-2.6
3,A60U C85U G88U C99U,≤ -4.2
4,C63U G141U,1.25
5,A60U G92U G141C,-2.82
6,A60G G81A A97U C99U,-1.35
7,G62C C63A C116G,-1.77
8,U61C G80C C85U C99U U146A,≤ -4.2
9,U61A A122G G140C,≤ -4.2
10,G62A C85A U151C,≤ -4.2
11,C63U G126C,0.627
12,U61C C96A,-3.31
13,A60G G70A C108G,≤ -4.2
14,A60U U139A A150U,≤ -4.2
15,A64C C85A,≤ -4.2
16,C63U U148C,-1.65
17,G62A G65A G117U U144A,-3.79
18,G62A G140A,-3.95
19,C63U A91U C93G U139G,≤ -4.2
20,A60U G84U,-1.58
21,A60U C85U U148C,-3.17
22,U61A G84A,-1.38
23,U61A A64G G140C U144C,≤ -4.2
24,G62A C87G U90A C96U C99U U148G,≤ -4.2

row,Variant,polymerase ribozyme fitness (log ratio)
1,U61G U82C A89U A120U U135A,-2.52
2,A60G G70C A89C,-3.24
3,U61A C87U U102C C103G U130C,≤ -4.2
4,G62U G94U C96U,-3.88
5,A60U U78C A91U C116A G117U,≤ -4.2
6,C63G U90A C99G U148A,≤ -4.2
7,U61G A66C A150G,≤ -4.2
8,U61A C96G G117A,-2.2
9,G62C C93U U135A,-3.41
10,C63G A91G,-2.57
11,U61A C85U,-1.28
12,U61A C85A,-3.12
13,U61A C85G,≤ -4.2
14,G62A C69U G92C,-3.74
15,U61G G136C,-2.91
16,U61A G65C C85A C96G U151C,≤ -4.2
17,U61C G94A G141A C149A,≤ -4.2
18,C63G A66G G71A G74U U135G G143C,≤ -4.2
19,A64C A107C C131A,≤ -4.2
20,C63U U82G G126A G140A,-3.92
21,C63G A64C C72U C95U C105G A120U G141U,≤ -4.2
22,U61A G80A,-2.08
23,U61A A64C G71A G86A A91C C93U C118G,≤ -4.2
24,A60U C79U G81U A91G C95G U102A,≤ -4.2

row,Variant,polymerase ribozyme fitness (log ratio)
1,G62C A120G,-0.94
2,U61A C72U,-3.66
3,A60U C85G C96U C105U,≤ -4.2
4,U61A G86A A122G,-2.67
5,U61A C129U,-3.55
6,G62A G141U,1.11
7,A60U G84A C116U,-1.05
8,C63U A122C,-0.464
9,A60U G84U C95G,0.318
10,A60G C105G U145G,-1.64
11,A60G C96G,-0.394
12,A60G U102A U109G A115C,-3.77
13,A60G G83A G86A A97C C125G C131G G136A G152U,≤ -4.2
14,A60U A91G G141A U145G,-3.98
15,A60G U134G,-2.14
16,A60G U134A,-1.8
17,U61A U90G U139C,≤ -4.2
18,C63U C93A C116G A142G,-3.41
19,G62C G94C,-2.03
20,A64C G65A A107G G112U G124A G141U U148G,≤ -4.2
21,U61A A73G,-1.42
22,U61A A73C,-3.91
23,A60G G94A,0.0761
24,A60U C69A,-0.294

row,Variant,polymerase ribozyme fitness (log ratio)
1,U61A G86A A97U C99G A113U G152U,≤ -4.2
2,G62U C96U,-1.14
3,A64C A115U A142U G143U,≤ -4.2
4,U61G C99G A138G,≤ -4.2
5,C63U C76A C103G U146G U148G,≤ -4.2
6,A60G G92A C96U A121C,-2.75
7,U61A G88U,≤ -4.2
8,U61A C85U A97C A120G,-3.26
9,C63U G65A A73U A115G U134G,≤ -4.2
10,U61A C75U C125A G128A A142U A147G,≤ -4.2
11,U61G C95G,-2.32
12,U61G C95U,-2.07
13,U61A U82A,-1.03
14,A60U G70A C85U G86A,≤ -4.2
15,A60U A89C,-0.611
16,A60G G67U C93U C99U C129U,≤ -4.2
17,U61A C105U U134G U139G,-4.18
18,C63G U78A C79U C85U A98G A106U U134C A142G U146A,≤ -4.2
19,A60G C95U,-0.927
20,U61A G94U A106G,-2.71
21,U61A C96G U109A,-3.32
22,U61A G83C,-3.05
23,A60U,-0.665
24,G62C C123A,-1.69

row,Variant,polymerase ribozyme fitness (log ratio)
1,C63G G92U U102C A120G,-1.8
2,U61G C75U U144C,-1.52
3,G62A G117A U134C A150G,≤ -4.2
4,C63U C85G U127A U139A U145C,≤ -4.2
5,C63U U104G,0.272
6,A64G C69G C75A C85A A89U C93A U104G,≤ -4.2
7,C63U C95U,-0.692
8,U61G A89U C95A C99A U109C G136A U148G C149A,≤ -4.2
9,C63A A107C U111C A122G,≤ -4.2
10,G62C A115C,-1.06
11,G62A A66G G86U A121G U127C,≤ -4.2
12,C63G G133U,-4.14
13,U61A A66U U82C G92C C95G,≤ -4.2
14,U61A G84U C114U,-3.85
15,A60G G71A G141U,≤ -4.2
16,C63U C69A C85U A97C C118G G126C,-3.97
17,U61A G140A,≤ -4.2
18,A60U U61A C69G C96U,≤ -4.2
19,C63G G68C,≤ -4.2
20,A60G G70A U78C U130A,≤ -4.2
21,U61G C85A,-2.29
22,C63U U102A U104G G124A,-2.05
23,C63A G92C,-1.03
24,U61C G126A,-0.237

row,Variant,polymerase ribozyme fitness (log ratio)
1,U61G A64C C75G C93U,≤ -4.2
2,U61A C125U,-1.86
3,U61A C125A,-2.73
4,U61C U104G G126C,-2.04
5,U61C G92A A120C C123A U144C,≤ -4.2
6,C63U C85U C95A,-0.621
7,C63U U139G,0.261
8,A60U G136C U139G,-3.71
9,A60G C93G A147G,-4.1
10,G62A C99U,-2.24
11,C63G U102G C105U,≤ -4.2
12,A60G C99U A150C,-4.02
13,U61G C87U C125G,≤ -4.2
14,C63U G68A,≤ -4.2
15,U61G G67U U90A A120G,≤ -4.2
16,C63U G83C U102A A142G A150C,≤ -4.2
17,U61C C76A,-2.59
18,G62A C87U A120G A142C,-3.11
19,A60U C76U G86A G141A,-3.96
20,C63G C93A A98G C116U G140C,≤ -4.2
21,A60U G81U C85U G92U C93G C96A C103U G128A,≤ -4.2
22,G62A A121G,-0.384
23,C63A C87U G88A A115U,≤ -4.2
24,G62A A64U C69U C76U G84A C105G C116G,≤ -4.2

row,Variant,polymerase ribozyme fitness (log ratio)
1,U61G C69G U82A C95A A122U U148C,≤ -4.2
2,C63G G83A A98C U104A,-0.841
3,A60G C129G,-2.25
4,U61G U101C,-2.61
5,U61G C93A,-4.13
6,U61G C93U,-1.89
7,A60U C87A C95A C108A A110G,-4.07
8,U61A U144C,-2.19
9,C63A A120U G124C,-2.49
10,U61G C85A G141A,-1.58
11,U61A C79G U82C C132G,≤ -4.2
12,U61G C96U,-1.29
13,A60U C79U A98G C103A,≤ -4.2
14,A60U A150C,-3.39
15,G62U U102A,-1.64
16,A60U G143A,-1.07
17,C63A C85G C95U C118U,-2.65
18,A60G U61G G81C A122C A142U,-3.02
19,A60G G70C U77A U135G,≤ -4.2
20,U61G G74U G83A,≤ -4.2
21,G62U C72G C93A,≤ -4.2
22,G62C A113U G117A A137C,≤ -4.2
23,C63U C75U U82A,0.455
